In PMC8303780, “Mutational Analysis of Redβ Single Strand Annealing Protein: Roles of the 14 Lysine Residues in DNA Binding and Recombination In Vivo”:

What was measured:
Test in all cases: EMSA; strands added sequentially; Anisotropy: 50 mM Tris-HCl pH 7.5, 1 mM DTT, 0.1 mg/mL BSA, 10 nM FAM48, 23 °C (Kd per monomer); gel assay: 10 µM Redβ, 50 µM nt of each oligo, PBS, 37 °C, 1% agarose at 22 °C
Conditions in all cases: protein: recombinant; tags: 6xHis removed by thrombin; residual N-terminal GSH; label: 5'-Cy3 and 5'-Cy5; complementary 50-mers; annealed by protein
Redβ K154A = molecular target: T1, Redβ K154A (bacteriophage λ, UniProt P03698 1-261, K154A)
T1 sequence: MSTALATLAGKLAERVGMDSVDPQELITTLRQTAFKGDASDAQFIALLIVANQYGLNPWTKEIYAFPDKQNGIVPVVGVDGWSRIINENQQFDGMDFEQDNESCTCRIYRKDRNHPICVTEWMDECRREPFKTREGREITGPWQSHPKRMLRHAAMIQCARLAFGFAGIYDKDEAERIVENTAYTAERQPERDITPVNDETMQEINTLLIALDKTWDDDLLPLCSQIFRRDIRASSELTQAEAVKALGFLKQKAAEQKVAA

Redβ K245A = molecular target: T2, Redβ K245A (bacteriophage λ, UniProt P03698 1-261, K245A)
T2 sequence: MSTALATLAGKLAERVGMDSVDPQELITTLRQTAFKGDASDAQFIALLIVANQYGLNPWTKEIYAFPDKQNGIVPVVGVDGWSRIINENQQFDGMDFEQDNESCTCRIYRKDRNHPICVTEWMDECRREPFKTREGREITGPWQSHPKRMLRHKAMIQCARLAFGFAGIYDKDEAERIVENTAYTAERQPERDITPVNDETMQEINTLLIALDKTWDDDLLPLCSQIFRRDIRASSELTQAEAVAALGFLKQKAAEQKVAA

Redβ K111A = molecular target: T3, Redβ K111A (bacteriophage λ, UniProt P03698 1-261, K111A)
T3 sequence: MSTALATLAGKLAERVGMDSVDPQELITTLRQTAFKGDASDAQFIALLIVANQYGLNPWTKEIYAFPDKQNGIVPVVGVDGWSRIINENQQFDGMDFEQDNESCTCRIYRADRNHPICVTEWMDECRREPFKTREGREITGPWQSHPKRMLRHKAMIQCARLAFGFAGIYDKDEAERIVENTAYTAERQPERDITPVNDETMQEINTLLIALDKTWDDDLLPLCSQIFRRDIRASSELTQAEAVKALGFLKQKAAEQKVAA

Redβ K258A = molecular target: T4, Redβ K258A (bacteriophage λ, UniProt P03698 1-261, K258A)
T4 sequence: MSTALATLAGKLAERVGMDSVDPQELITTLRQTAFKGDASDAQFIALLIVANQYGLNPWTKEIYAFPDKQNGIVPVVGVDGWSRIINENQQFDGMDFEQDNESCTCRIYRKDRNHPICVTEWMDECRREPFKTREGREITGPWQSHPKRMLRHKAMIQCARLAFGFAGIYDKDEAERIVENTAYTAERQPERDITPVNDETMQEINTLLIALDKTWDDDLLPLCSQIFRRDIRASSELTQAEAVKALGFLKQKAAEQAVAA

Redβ K172A = molecular target: T5, Redβ K172A (bacteriophage λ, UniProt P03698 1-261, K172A)
T5 sequence: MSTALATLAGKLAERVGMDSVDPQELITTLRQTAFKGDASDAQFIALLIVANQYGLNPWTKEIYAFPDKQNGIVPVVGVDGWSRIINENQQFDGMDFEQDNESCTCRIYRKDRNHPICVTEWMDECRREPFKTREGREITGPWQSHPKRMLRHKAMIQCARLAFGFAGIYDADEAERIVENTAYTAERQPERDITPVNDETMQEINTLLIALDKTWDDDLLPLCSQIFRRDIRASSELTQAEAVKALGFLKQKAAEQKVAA

Redβ K11A = molecular target: T6, Redβ K11A (bacteriophage λ, UniProt P03698 1-261, K11A)
T6 sequence: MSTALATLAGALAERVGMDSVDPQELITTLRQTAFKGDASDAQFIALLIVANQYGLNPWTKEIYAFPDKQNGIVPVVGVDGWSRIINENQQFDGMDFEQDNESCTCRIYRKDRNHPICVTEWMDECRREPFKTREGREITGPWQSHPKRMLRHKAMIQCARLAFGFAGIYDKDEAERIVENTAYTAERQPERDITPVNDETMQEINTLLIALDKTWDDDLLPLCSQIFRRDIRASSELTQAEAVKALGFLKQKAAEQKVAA

B1: annealed duplex of Cy3 and Cy5 50-mers, strands added sequentially (dsDNA)
DNA 1: GCGGATGGCTTAGAGCAGAATCGCCCTGCATAGCTCGATTTTTGCGGATG
DNA 2: CCATCCGCAAAAATCGAGCTATGCAGGGCGATTCTGCTCTAAGCCATCCG
- binding result (Redβ K154A): no binding
- binding result (Redβ K245A): binds
- binding result (Redβ K111A): no binding
- binding result (Redβ K258A): binds
- binding result (Redβ K172A): no binding
- binding result (Redβ K11A): binds
